Experiments:
[1] = molecular target: IRS-1, endogenous in Rat-1 fibroblasts and L6GLUT4myc myoblasts (UniProt P35570); assay: cell-based or functional assay
[2] = molecular target: IRS-1, endogenous in COS cells; assay: cell-based or functional assay
IRS-1, endogenous in COS cells, sequence (Q28224 whole entry): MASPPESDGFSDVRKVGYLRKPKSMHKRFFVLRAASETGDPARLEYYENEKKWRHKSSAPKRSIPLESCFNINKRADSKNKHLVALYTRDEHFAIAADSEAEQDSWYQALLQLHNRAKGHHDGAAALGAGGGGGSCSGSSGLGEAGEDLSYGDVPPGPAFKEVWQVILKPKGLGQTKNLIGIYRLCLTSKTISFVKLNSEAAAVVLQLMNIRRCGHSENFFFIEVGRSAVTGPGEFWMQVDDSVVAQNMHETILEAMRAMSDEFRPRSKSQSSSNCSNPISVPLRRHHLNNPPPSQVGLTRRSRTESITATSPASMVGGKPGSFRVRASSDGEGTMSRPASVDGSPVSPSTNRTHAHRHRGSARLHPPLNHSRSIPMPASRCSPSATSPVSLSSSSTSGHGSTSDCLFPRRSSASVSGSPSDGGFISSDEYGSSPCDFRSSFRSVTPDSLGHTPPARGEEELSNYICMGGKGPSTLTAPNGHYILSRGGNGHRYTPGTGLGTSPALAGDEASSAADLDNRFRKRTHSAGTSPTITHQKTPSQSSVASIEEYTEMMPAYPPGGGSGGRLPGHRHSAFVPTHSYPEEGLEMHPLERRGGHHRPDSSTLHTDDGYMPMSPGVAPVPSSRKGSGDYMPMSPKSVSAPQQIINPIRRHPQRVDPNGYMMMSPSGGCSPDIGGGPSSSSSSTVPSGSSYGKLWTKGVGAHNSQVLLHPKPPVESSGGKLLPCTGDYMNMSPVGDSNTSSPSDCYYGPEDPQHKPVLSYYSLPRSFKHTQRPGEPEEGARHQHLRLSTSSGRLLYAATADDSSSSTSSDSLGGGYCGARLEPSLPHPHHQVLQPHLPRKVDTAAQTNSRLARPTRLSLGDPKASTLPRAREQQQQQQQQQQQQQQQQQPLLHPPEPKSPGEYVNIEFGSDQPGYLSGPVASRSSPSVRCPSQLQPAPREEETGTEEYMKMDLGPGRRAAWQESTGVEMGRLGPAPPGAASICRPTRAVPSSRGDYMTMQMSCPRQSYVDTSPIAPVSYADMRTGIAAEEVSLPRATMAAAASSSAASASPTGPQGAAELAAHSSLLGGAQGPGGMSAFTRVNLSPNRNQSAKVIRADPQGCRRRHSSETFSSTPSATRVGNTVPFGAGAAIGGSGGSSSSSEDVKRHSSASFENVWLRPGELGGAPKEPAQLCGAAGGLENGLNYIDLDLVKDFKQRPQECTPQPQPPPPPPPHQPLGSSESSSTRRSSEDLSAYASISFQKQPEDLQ

IRS-1, endogenous in Rat-1 fibroblasts and L6GLUT4myc myoblasts, sequence (P35570 whole entry): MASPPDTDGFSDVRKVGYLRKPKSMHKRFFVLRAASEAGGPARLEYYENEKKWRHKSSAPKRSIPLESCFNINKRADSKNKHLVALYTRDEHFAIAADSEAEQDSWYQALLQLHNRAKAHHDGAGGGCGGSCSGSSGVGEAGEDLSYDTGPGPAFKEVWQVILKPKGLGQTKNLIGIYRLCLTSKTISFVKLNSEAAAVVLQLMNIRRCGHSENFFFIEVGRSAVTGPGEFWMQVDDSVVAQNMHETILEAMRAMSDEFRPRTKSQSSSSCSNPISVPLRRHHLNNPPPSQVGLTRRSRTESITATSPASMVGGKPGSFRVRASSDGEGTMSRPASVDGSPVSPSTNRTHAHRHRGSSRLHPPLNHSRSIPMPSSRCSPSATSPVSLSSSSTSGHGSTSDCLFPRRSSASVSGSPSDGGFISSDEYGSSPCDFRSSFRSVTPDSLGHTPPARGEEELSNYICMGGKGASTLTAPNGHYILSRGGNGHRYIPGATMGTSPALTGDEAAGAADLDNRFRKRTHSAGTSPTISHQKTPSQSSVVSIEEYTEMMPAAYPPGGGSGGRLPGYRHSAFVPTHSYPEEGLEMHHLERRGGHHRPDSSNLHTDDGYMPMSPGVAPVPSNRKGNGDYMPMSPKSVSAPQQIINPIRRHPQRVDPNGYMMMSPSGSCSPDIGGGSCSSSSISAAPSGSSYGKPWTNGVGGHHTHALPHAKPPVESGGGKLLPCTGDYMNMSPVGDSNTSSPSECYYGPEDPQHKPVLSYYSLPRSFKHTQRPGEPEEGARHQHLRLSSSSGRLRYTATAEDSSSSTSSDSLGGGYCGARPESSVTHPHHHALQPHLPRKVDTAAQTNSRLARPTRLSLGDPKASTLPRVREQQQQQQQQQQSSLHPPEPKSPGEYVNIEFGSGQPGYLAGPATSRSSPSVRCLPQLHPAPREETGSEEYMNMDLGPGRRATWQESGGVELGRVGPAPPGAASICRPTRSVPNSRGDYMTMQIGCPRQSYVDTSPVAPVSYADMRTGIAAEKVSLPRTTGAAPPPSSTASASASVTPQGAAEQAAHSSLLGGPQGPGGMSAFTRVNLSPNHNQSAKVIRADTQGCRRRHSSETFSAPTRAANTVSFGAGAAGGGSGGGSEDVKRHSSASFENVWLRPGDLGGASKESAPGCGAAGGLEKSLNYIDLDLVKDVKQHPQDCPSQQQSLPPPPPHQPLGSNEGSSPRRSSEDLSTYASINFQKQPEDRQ

insulin-dependent GLUT4myc membrane translocation in L6GLUT4myc myoblasts [1]: > 90% | IRS-1 tyrosine phosphorylation in insulin-treated cells [2]: > 5 fold
Substance: HA-tagged dominant-negative PHIP (DN-PHIP), PHIP PBR region alone (residues 8-209) (from UniProt Q8VDD9 927-1128)
